Experimental findings from publication PMC10798645 are described below.

The target in experiment [1] is SARS-CoV-2 Omicron (BA.1) Spike (pCAGGS-SARS-CoV-2 BA.1 Spike) (UniProt P0DTC2). Particulars: parent: est. 1.0; read off a plot.
Experiment [2] has as its target SARS-CoV-2 Wuhan-1 Spike (S), C-terminal 6xHis (pcDNA5) (UniProt P0DTC2). Particulars: parent: est. 1.0; read off a plot.

Take “HA-tagged full-length BST2 (pcDNA5) (from UniProt Q10589) EC2Ala”: the ratio to parent in experiment [1] was 1; in experiment [2] it was 0.74.
